Data taken from article PMC2191888.

target: MCP-1 receptor(s) on THP-1 cells (human (endogenous in THP-1)) (UniProt P41597); assay: radioligand binding

| Substance | Kd | IC50 | fold higher Kd than MCP-1 |
| --- | --- | --- | --- |
| MCP-1 2-76 analogue (from UniProt P13500 25-99) (domain or fragment) | 385 nM |  |  |
| MCP-1 3-76 analogue (from UniProt P13500 26-99) (domain or fragment) | 487 nM |  |  |
| MCP-1 10-76 analogue (from UniProt P13500 33-99) (domain or fragment) |  |  | 13 fold |
| MCP-1 11-76 analogue (from UniProt P13500 34-99) (domain or fragment) |  |  | 48 fold |
| MCP-1 (Ac) (from UniProt P13500 24-99) (ligand) | 333 nM |  |  |

Continued, values first:

| Kd | IC50 | fold higher Kd than MCP-1 | Substance |
| --- | --- | --- | --- |
| 23 nM |  |  | MCP-1 5-76 analogue (from UniProt P13500 28-99) (domain or fragment) |
| 8.3 nM | 17 nM |  | MCP-1 9-76 analogue (from UniProt P13500 32-99) (domain or fragment) |
| 2.8 nM |  |  | Monocyte chemoattractant protein 1 (MCP-1), synthetic, NH2-terminal pyroglutamate form (from UniProt P13500 24-99) (ligand) |
